Data from the domain aggregation screens of Martell et al. (2025).

Experiment: soluble fraction after stress (log2 fold change); higher = more stays soluble; pooled small domains, quantitative proteomics
Details: stress: 75 degC
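Note: 20 min heating vs room temperature control held 20 min.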

Row | Sequence | soluble fraction (log2)
1 | HMQEKIREVANRIRELRESLEVSPEEMADHLKVTIGTYIEYERGEADIPASVLFGIAHRLNVDMAVLL | -1.36
2 | HMQEKLELIIPVSSIGKRADVAIQDLLSSYSRAKIQEWIKSGFILLESKKISPKDIFMGGERVFIDIQQDE | -1.86
3 | HMQELVPGKVFEGTVTEMKNGQVTLGLSDGKTISARMEQGVSLAKGQPMLFEVKSNTGEQIAIRPVVL | 0.263
4 | HMQENKVLEGKVLEKKKKKVFVDLSPFGVGVIRGVNYLEAKNELKDIEEGDNIKVRVLEIDNENGFIELAL | -0.121
5 | HMQERQREGFVQQLRGKYSGQVVMRLFPELQGKALGEFMRKFEAQWEDHEAVLAAMEAHEIESRLKVFK | -1.57
6 | HMQETALANFETNEGVQKVKQYVQENVPSLRGSNIVGVWTSYTPEGLTNYRTRFLTQDGQFVEVNLAYQ | -0.203
7 | HMQETIDVAALRVGMFVHLDLGWLAHPFPLSSFRISSEDQISTIRALGLKRVRWSSQHSELG | -1.29
8 | HMQETKDEGAQVLLNKINALVAAVQGQIITPEEAAIKLATDGDLDLDVDARVAAIEEFNKKLSEAQNN | 0.101
9 | HMQEVILEKIQLTYLSADKLSKMAEQFSIPVKMYWVDENPMMLMVMGNESDIATFKKVLTQIDIPENKS | -0.268
10 | HMQFHQDNYALEFIRDLQPVDGAIILSRFKQFDLVELEKAKKIKFSDEHMAWTLYDYDIKKIN | -1.95
11 | HMQFLKPQDVLFLLKLVVLKGPASIFPAVPESLGLSKAEVHNSAKRVRGARLLPHDSWNPLRKNLLEFL | -0.488
12 | HMQFQVHEIKGKEYYIHVVEKGNTLYAISRMYSVPIETLKEENPRLNTTELTIGDRLLIPLDEVKRKNIE | -0.833
13 | HMQFYSGLEARLMDPNTPEVFDDPISLMAFLQQKNISRVELEDNLLLPYLKEMAGQPIPKAELLEIIRK | -0.815
14 | HMQGDHELSQRILSYLSEQGGSSPLTDKASPEEIYRIFRVSKKKYKQALGNLYKSKSIIILADKIQLL | -3.2
15 | HMQGEDEILKIHEALEELAQIDARLVRVVEMRYFVGLSNQEIADSLGVTTRTVERDWEKARTFLFNALHP | -1.86
16 | HMQGISGIERSLLDALAFEPAGLDALQARTGLDTPTLQALLMGLELQGHVARLPGSLFQRLVR | -0.9
17 | HMQGVTVPDLTRVSLEEAVATISSLGLRYEISDRRSNAAFPANYVLDQAPGANTIVKPNRKVYLTVNAA | -0.162
18 | HMQGWREWDYSADLYINARVGGKIEPTENSPISRVYELDEPVSVVAFTSTRYFKLSSGDYIFAEYLSAQKV | -4.29
19 | HMQGYELKMYVTPDTKYSVAVYDAKNEMVSYTMGFSAKAPFGQEGEVLETVKLEFDKLAVGNYELKYWI | 0.258
20 | HMQHYQFEVDEASSKKRLDVFLSENLPEISRSRLKKLIDEKRVTVNEMSRPAGYKVRVKEKIEFHIPPL | -0.718
21 | HMQIAEAESLGQRLLQQSINNIVGRDEAITEERLNRVLSQYSLTGRDELMAQIGLGNRNSSLVAKAMYDI | -0.0772
22 | HMQIKEVDYGTFISMTEDGEIGRVEIQQQENTILFTDEDETAVYKTAMVEDDQLTQRLYDAGISFYGEE | 0.0917
23 | HMQILVEGVEANQRLDLFLRARLTEFSRSRIQGLVKNGNVLVNGNIARQAYLVQVGDKIELDVPEPVA | -0.603
24 | HMQIMVVDEADRMLDMGFIPDIERIFQLTPFTRQTLFFSATMAPEIERITDTFLHSPERIEVAR | -0.255
25 | HMQISDDGFILKIINEVVAENPKSISDYISGKEAAVGFLVGQIMKKTRGKANPKLVNEMLITELAKLKN | 0.0585
26 | HMQISDESSIAKIADEVISEFPSQVSEFRSGKEKVLQFLIGQVMKKTKGKANPQITAKILREKLS | 0.00566

Row | Sequence | soluble fraction (log2)
27 | HMQISDSASVKTVVAEAIAANPKAVADFMNGKDTATRYLVGQVMKITKGQAKPELVNQLVLESLAELKEK | 0.361
28 | HMQISDSGELEKIVLQVIEENPKPAEQVRSGNEKAIGALVGGVMKATQGRADGGEVNRLLRQHLGL | 0.248
29 | HMQISDVSLIAKVIDDVIDNNVKSVSDYLEGNLNVLRFLVGQVMKETKGKANPQKATELLQEKLESLNN | -0.896
30 | HMQISLDTKLINLEFSVRANNVFRENQIFTLRDLTSHSKEDLMLMTNFGKTTLYEVNKKLEEHQLKLSQ | -2.43
31 | HMQISNEEELEKIIENVIESNPEKVKAYQSGKSGLIGFFMGQVMKESGGQANPNLVNQILKGKL | 0.109
32 | HMQIYSQEIYDAQKVLKELGLYTSDLDGLNGPGTKRALRNFQSKSGLNADGVLGPLTKSALDKGEESYITV | -0.0827
33 | HMQKADFDYGDYVDLGLAMGRQSRQLREAVGIKLGIGYANSKRFYQRLQTFGISLAELKQAVEEAENDQQN | -1.12
34 | HMQKEMDIVLQINGKMRSNLKVSSTANDDEIIKTAIESDAYKKFSLGLRIQKTIIVPNRLINIVLEK | -3.24
35 | HMQKIYTIARGDTLSHIVAGTLKQQGIAYTTGELYRLVNVVAQYNDILNPNRIYTGHQLDLTPLYSED | -0.15
36 | HMQKLLGPFEDFVKIKLDKYPDTKAAQMHDWLKEHYPDFPEVTPKTVYNFVMYVRQRHNIPIPD | -0.359
37 | HMQKTVLAASVYERMKERIMDQYYPPGERLNIDALAIDLAVSPTPIREALARLAAERLITFEAYKGYRVSP | -3.38
38 | HMQLEPLVTSVIPVNFAKASDISGTIKGKEVGLLSERGNITAENRTNVLIVKDIRKSVDEINAMVKRLD | 0.0272
39 | HMQLFKFKNAMMELAKNKNITLDTAEKAIGLEAGFTELVARGVKELALSDVIKISKYFNTTMDSVLD | -1.44
40 | HMQLPFTPREHEITQLLSRGLSNRQIAEALSLSVRTVEGHIYQASTKLGISSRSELAVLVGQFA | -1.94
41 | HMQLSQLLQPFDINAFKGHPLYTEENVKMFNDYTNRVKEWTKGTPYEQYWVTKEGQPTMLAWDSFKK | -1.28
42 | HMQLTQEAIENLFKITTAKKFREELEKLVVTDSEKKAFAYFTVYHPKLKELPFAILKSVENYTGISI | -0.963
43 | HMQLVPGIGRLSARELEVFTLIGRGLGTSEIGKKLGVSAYTVQTHRNHIKEKLNLPNAAAITYWAIQWAHG | -2.27
44 | HMQMEDTDALLQVAKEVVAENQDTVEAYLGGREKAFASLIGAAMKKTRGKANPKVIRQLILDLIQ | 0.564
45 | HMQMEISQRIKLERQTLKWTQEELADKIFVSKRTISNWETGRTVPDIESVLRLAKVFHVSLEDLLL | -4.46
46 | HMQMEYEKAIAYILDKIKSGELSIGSKLPAERVIADTLHIGRNSTREALSILHGMGMVDRVHGSGNYISEH | -0.752
47 | HMQMLQDPFLNALRKEHVPVSIYLVNGIKLQGQVESFDQYVVLLRNTSVTQMVYKHAISTIVPARAVSL | -0.748
48 | HMQMRKENKILVTDIGEIDEVKVIFDDDNKPYLYSYNGEDEFYRPDETYKFFDNKEQAEEYVREN | 0.0692
49 | HMQMSPREKMIYSFIESHPGTKSGEIAEKLNVPLPTVKRILSEMVSGNFIAKHGSGIGTNYSTEK | 0.335
50 | HMQMSWDAVKARLQDIVNNEDKTKPFNDEMLASKLKEQGIEIARRTVVKYRQQLGIPAARLRKK | -0.752
51 | HMQNAETPDVAAEFRTWTSADGQFQVIAKLVKLDGESVHLERQDDGRQIAVPLGKLSSEDRLFLRGVRP | -0.184
52 | HMQNEQIAFSKFLQEVDSGRVVQVEIQGNNIKGILSDGSKFYTYSPNYPELVGKLSEKGVNIVASPVE | 0.196

Row | Sequence | soluble fraction (log2)
53 | HMQNFLSITSKEKIDIGNFQLISFKFENNLYDYVISGNKSELLIFQEKTIENNNENIEKITSNF | -2.54
54 | HMQNLETVEEIKELALNYLDKYQPSKKSLQVYLFRKAIDAQSNSVEKSEILKKIETVLTDLEEQGILNDAL | -0.135
55 | HMQNMVYVATKDIPAGGVIDQDSVSKTAISTSIDTSLYITDDDLGKIAVVNISQGQSVFSNMVGT | 0.656
56 | HMQNNITISKEIELRTGPDDTYPTLKKVTAGDNVEMLSKSDTWYEIKTNDSFVGWVPGWSIL | -0.0886
57 | HMQNSYSVEDLALKAGLSVDTIRYYQGLDLIAPPQKNGRRAIYGDEHLSRLDEIKKLALEGFSLRQISLLK | -0.739
58 | HMQNYNLTQQEKKVLQLLVSGKSYKMIAAELNVAFDTVKSHITNIYSKLHVHSGTEAVSVAIRDKI | -1.46
59 | HMQPDDELVRLLLIKIFNDKQLKVNPAVINYLLRRIDRSFESINNFVKKIDEFSLEKGRKITVNLVSGFF | -0.777
60 | HMQPFTELTPREREILGHLAEGQSNKVIARHLDISDGTVKLHVKAILRKLGVHSRVEAAVMAVEHGIR | -2.11
61 | HMQPIEIQDRITKAFERSAALEAKNINVEVDGHTVKLTGTVHSLTEKEEARKAAFFAPGVTKVENHLIVDY | 0.0424
62 | HMQPMIQIHTLANHAPVALHIKRNTQRNIIIRARDASSLNLSIPKWFSPAQLQNWLRDNEATLIRILQQAP | -3.6
63 | HMQPPKIISTVEPYREVVREYLKQGVEMTAIWQRLRENYQYTGSYSSVRRFVAQLEPRQPEA | -1.9
64 | HMQPQLFRVIADDGLNIRSGPGPEYPPVAPMLRKGTQVELLQAGDRWSKVEVVGSTDVEGWVNQRYLQAV | -0.169
65 | HMQPSQTLSATVEFPDRLDRFLALAFPEVSRARFQRLIAEGHVSVEGVPATEIRHKLKAGQRVEAVIPPA | -0.276
66 | HMQPTVEGLMKALETMTFNERTALALHYGLTGRQPMTFMAIGRYLGISDGRAEALVNSAIRKLR | -1.8
67 | HMQQGVEQLPVTEVGGRLMHYYEVQPKETLYSLSHKLGVGQEYIEQHNPSVRGGLRAFMTLYFPAA | -0.00835
68 | HMQQIAVDLSEFKPRLMRDMSSMLAGLYTHDLDLSSLDFSKVANFTFMFRGAIITGTLKMPKI | 0.202
69 | HMQQLDDDTVAYVADNGIAVKSKNGKELSVDTSGLSYDIIMDMFRNLPRNGDFFSSKYWSDNIQKAQAR | 0.447
70 | HMQQLIEFSVTKGHPWINKKIMDLNLPENQLILTIQREGHVVSAEGKTIILENDRITISTDDR | -1.26
71 | HMQQPVVVQQNQTVRVVTGGPGFQVANEGRALNNGLAGQVVQVRLGNGQIISGIARAGGIVEIL | -0.017
72 | HMQQSQLDDIKSVVGGDEGYNKLREWTQANVPDETLKAFDKILDTQDPTMIKVAVEGFAAQMRQAE | -0.232
73 | HMQQTAEDWKNKGDSLTAQSEYVEAIAAYDEAIRLDPNYAPAWSNKGNALKNLGEYYKAIQAYDEAIRL | 0.104
74 | HMQQYLDAYDKALAFGIAMNKLPSYENLTLDDKEDVDKLKEIYDGMSNYEKTFVAKDFTDKLDRYVKRIE | 0.347
75 | HMQRADYLILYYIKMQAEQHPDSKVYLADLAAVMGLKVTELSKAVEKLQDNGFVAWKTDREAGRTYVELS | -3.13
76 | HMQRIFIDNHDRILYYSNPAGYIAGKEAVVDTMFQTQELERFLQKQSLSIRWEDGVYDRLLLGQ | -0.0579
